Source: IntAct's records for PubMed 20388642

B1: Ras-related protein Rab-8A (Homo sapiens), P61006 (parent)
chain: MAKTYDYLFKLLLIGDSGVGKTCVLFRFSEDAFNSTFISTIGIDFKIRTIELDGKRIKLQIWDTAGQERFRTITTAYYRGAMGIMLVYDITNEKSFDNIRNWIRNIEEHASADVEKMILGNKCDVNDKRQVSKERGEKLALDYGIKFMETSAKANINVENAFFTLARDIKAKMDKKLEGNSPQGSNQGVKITPDQQKRSSFFRCVLL

Variants of: B1
Conditions: with optn_human OPTN

Row | effect of a mutation on the interaction | Variant
1 | decreasing interaction | MAKTYDYLFKLLLIGDSGVGKNCVLFRFSEDAFNSTFISTIGIDFKIRTIELDGKRIKLQIWDTAGQERFRTITTAYYRGAMGIMLVYDITNEKSFDNIRNWIRNIEEHASADVEKMILGNKCDVNDKRQVSKERGEKLALDYGIKFMETSAKANINVENAFFTLARDIKAKMDKKLEGNSPQGSNQGVKITPDQQKRSSFFRCVLL [T22N]
